# Laboratory results from the supplement of paper PMC12855868.
# B1: library; numbered along this chain (parent)
# chain: MAAAGGARLLRAASAVLGGPAGRWLHHAGSRAGSSGLLRNRGPGGSAEASRSLSVSARARSSSEDKITVHFINRDGETLTTKGKVGDSLLDVVVENNLDIDGFGACEGTLACSTCHLIFEDHIYEKLDAITDEENDMLDLAYGLTDRSRLGCQICLTKSMDNMTVRVPETVADARQSIDVGKTS
# Variants of: B1
# Test: scaled log2 fold change in cell abundance, elesclomol vs control (0 = silent mean, 1 = nonsense mean) (scaled log2 ratio); higher = higher viability under elesclomol (loss of FDX1 cuproptosis function)
# Conditions: glucose 10 mM
# [1] = with ABC1 FDX1 KO, elesclomol 5 nM, 14 days
# [2] = with HEK293T FDX1 KO, elesclomol 40 nM, 11 days
# 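Further: variant abundance is its share of total variant reads in each endpoint sample, from next-generation sequencing of the integrated ORF PCR-amplified out of genomic DNA.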
variant,measurement,setting,value
D139C,scaled log2 fold change,[1],-0.416
same,scaled log2 fold change,[2],-0.576
D139E,scaled log2 fold change,[1],0.147
same,scaled log2 fold change,[2],0.513
D139F,scaled log2 fold change,[1],0.257
same,scaled log2 fold change,[2],0.819
D139G,scaled log2 fold change,[1],-0.228
same,scaled log2 fold change,[2],-0.268
D139H,scaled log2 fold change,[1],-0.062
same,scaled log2 fold change,[2],-0.315
D139I,scaled log2 fold change,[1],-0.652
same,scaled log2 fold change,[2],0.722
D139K,scaled log2 fold change,[1],0.896
same,scaled log2 fold change,[2],0.86
D139L,scaled log2 fold change,[1],0.0653
same,scaled log2 fold change,[2],-0.608
D139M,scaled log2 fold change,[1],0.045
same,scaled log2 fold change,[2],0.155
D139N,scaled log2 fold change,[1],-0.132
D139P,scaled log2 fold change,[1],-0.0434
same,scaled log2 fold change,[2],-0.395
D139Q,scaled log2 fold change,[1],-0.0276
same,scaled log2 fold change,[2],0.00203
D139R,scaled log2 fold change,[1],0.938
same,scaled log2 fold change,[2],1.09
D139S,scaled log2 fold change,[1],-0.201
same,scaled log2 fold change,[2],-1.37
D139T,scaled log2 fold change,[1],-0.31
same,scaled log2 fold change,[2],-0.694
D139V,scaled log2 fold change,[1],0.0114
D139W,scaled log2 fold change,[1],0.0888
same,scaled log2 fold change,[2],-0.429
D139Y,scaled log2 fold change,[1],-0.145
same,scaled log2 fold change,[2],0.0051
L140A,scaled log2 fold change,[1],-0.069
same,scaled log2 fold change,[2],-1.25
L140C,scaled log2 fold change,[1],-0.0723
same,scaled log2 fold change,[2],-0.467
L140D,scaled log2 fold change,[1],-0.319
same,scaled log2 fold change,[2],-0.308
L140E,scaled log2 fold change,[1],0.271
L140F,scaled log2 fold change,[1],-0.344
same,scaled log2 fold change,[2],0.78
L140G,scaled log2 fold change,[1],-0.344
same,scaled log2 fold change,[2],0.395
L140H,scaled log2 fold change,[1],-1.29
same,scaled log2 fold change,[2],0.795
L140I,scaled log2 fold change,[1],-0.0613
same,scaled log2 fold change,[2],0.225
L140K,scaled log2 fold change,[1],-0.153
same,scaled log2 fold change,[2],-0.169
L140M,scaled log2 fold change,[1],0.393
same,scaled log2 fold change,[2],0.793
L140N,scaled log2 fold change,[1],0.179
L140P,scaled log2 fold change,[1],0.264
same,scaled log2 fold change,[2],0.879
L140Q,scaled log2 fold change,[1],0.178
same,scaled log2 fold change,[2],-1.41
L140R,scaled log2 fold change,[1],-0.341
same,scaled log2 fold change,[2],-0.397
L140S,scaled log2 fold change,[1],-0.172
L140T,scaled log2 fold change,[1],-0.682
same,scaled log2 fold change,[2],-0.194
L140V,scaled log2 fold change,[1],-0.00688
same,scaled log2 fold change,[2],0.753
L140W,scaled log2 fold change,[1],-0.629
same,scaled log2 fold change,[2],0.639
L140Y,scaled log2 fold change,[1],-0.351
same,scaled log2 fold change,[2],-0.373
A141C,scaled log2 fold change,[1],0.249
same,scaled log2 fold change,[2],-1.33
A141D,scaled log2 fold change,[1],0.178
same,scaled log2 fold change,[2],-0.445
A141E,scaled log2 fold change,[1],0.304
same,scaled log2 fold change,[2],-0.297
A141F,scaled log2 fold change,[1],-0.22
same,scaled log2 fold change,[2],1.03
A141G,scaled log2 fold change,[1],-0.119
same,scaled log2 fold change,[2],0.016
A141H,scaled log2 fold change,[1],0.134
same,scaled log2 fold change,[2],-0.527
A141I,scaled log2 fold change,[1],-0.168
same,scaled log2 fold change,[2],0.617
A141K,scaled log2 fold change,[1],0.122
same,scaled log2 fold change,[2],-0.0127
A141L,scaled log2 fold change,[1],-0.402
A141M,scaled log2 fold change,[1],-0.0992
same,scaled log2 fold change,[2],0.123
A141N,scaled log2 fold change,[1],-0.0904
same,scaled log2 fold change,[2],0.596
A141P,scaled log2 fold change,[1],0.46
same,scaled log2 fold change,[2],-0.803
A141Q,scaled log2 fold change,[1],0.09
same,scaled log2 fold change,[2],0.9
A141R,scaled log2 fold change,[1],0.0996
same,scaled log2 fold change,[2],0.0982
A141S,scaled log2 fold change,[1],-0.0824
same,scaled log2 fold change,[2],0.987
A141T,scaled log2 fold change,[1],0.135
same,scaled log2 fold change,[2],0.788
A141V,scaled log2 fold change,[1],0.00876
same,scaled log2 fold change,[2],0.0536
A141W,scaled log2 fold change,[1],-0.0378
same,scaled log2 fold change,[2],-0.209
A141Y,scaled log2 fold change,[1],-0.374
same,scaled log2 fold change,[2],-0.341
Y142A,scaled log2 fold change,[1],-0.39
Y142C,scaled log2 fold change,[1],0.285
same,scaled log2 fold change,[2],-0.427
Y142D,scaled log2 fold change,[1],-0.228
same,scaled log2 fold change,[2],1.12
Y142E,scaled log2 fold change,[1],-0.1
same,scaled log2 fold change,[2],-0.695
Y142F,scaled log2 fold change,[1],0.0438
same,scaled log2 fold change,[2],0.876
